Assay results published in patent US20240026334A1.

Target: type I collagen
Assay: cell-based or functional assay

Substance: elastin
- unbound DNA in DNA binding assay (1:1 elastin to collagen): 0.077 µM
- unbound DNA in DNA binding assay (1:2 elastin to collagen): 0.116 µM
